Data on 69 molecules can be found in patent publication US20220153796A1.

The target in this assay is HLA-A*24 (human). In words: UV peptide exchange ELISA. A general note: In an ELISA, binding on a coated surface is turned into a signal by an enzyme label.
Regarding LLIKLLQTF, the peptide exchange yield was in the range of 50 to 75%.

YLEKFYGL gave a peptide exchange yield of 20 to 50%. Turning to KYTNWKAFL, the peptide exchange yield is > 75%. For the molecule TLPNTIYRF, the peptide exchange yield was > 75%. With VFIDHPVHLKF the figure was > 75%; with KYMKIFHKF, > 75%; with PFLPPAACFF, > 75%. With VWSDVTPLNF the figure was > 75%; with SYMVLAPVF, > 75%. For the molecule KYLEESVWL, the peptide exchange yield is > 75%. With QYDPTPLTW, the peptide exchange yield is > 75%.

On to KYSTTFFMV, for which the peptide exchange yield lay within 20 to 50%.

Regarding YYSIISHTL, the peptide exchange yield was > 75%. Consider KTPTNYYLF, for which the peptide exchange yield is > 75%.

As for SLPDLTPTF, the peptide exchange yield was > 75%. For VYPASKMFPFI, the peptide exchange yield is > 75%. Take MYPDLSELLM: the peptide exchange yield was > 75%. As for RYMKKDYLI, the figure is > 75%; as for TQPGDWTLF, > 75%. As for QWPWQASLQF, the peptide exchange yield was > 75%.

Molecule TYNPDFSSL came in with a peptide exchange yield of 50 to 75%. As for VWSNVTPLKF, the peptide exchange yield is > 75%. SYSSCYSF showed a peptide exchange yield of 50 to 75%.

Consider IQMDEPMAF, for which the peptide exchange yield lay in the range of 10 to 20%. On to VMPSDSFFF, for which the peptide exchange yield was > 75%. As to SYEKVINYL, the peptide exchange yield was > 75%.

With IMPEKFEFW, the peptide exchange yield is > 75%.

For QYLPGWTVLF, the peptide exchange yield was > 75%. As for MQPRMFFLF, the figure is > 75%; as for QYEPPSAPSTTF, 50 to 75%; as for RYPGKFYRV, > 75%. The molecule YYADKKTFIVL yielded a peptide exchange yield of 50 to 75%. With DYIGSVEKW, the peptide exchange yield is > 75%. With LIFMLANVF the figure was 10 to 20%; with AYLSAVGTF, > 75%. With KYITNLEDL the figure was > 75%; with NYTLYPITF, > 75%; with KYALLLQEL, > 75%. For the molecule YYSKSVGFMQW, the peptide exchange yield is > 75%. Consider VYMIEPLEL, for which the peptide exchange yield is > 75%. On to RWMDQRLVF, for which the peptide exchange yield is > 75%. As for KFIISDWRF, the peptide exchange yield is > 75%. As to AFPVTSIFHTF, the peptide exchange yield is > 75%. With KYFVPPQLF, the peptide exchange yield is > 75%. With LYQEILAQL the figure was > 75%. KYKDYFPVI: the peptide exchange yield was > 75%.

Molecule SYEVRSTF showed a peptide exchange yield of 50 to 75%. NYAENILTL: the peptide exchange yield fell in the range of 50 to 75%.

For the molecule IYQQIIQTY, the peptide exchange yield is > 75%. On to ILKEDPFLF, for which the peptide exchange yield fell in the range of 10 to 20%. LYISEVRNI: the peptide exchange yield was > 75%. As for KYALLLQDL, the peptide exchange yield was > 75%. For SYPELVKMVW, the peptide exchange yield is > 75%. As to QFAAPLRGIYF, the peptide exchange yield is > 75%. Regarding STIRGELFFF, the peptide exchange yield lay within 10 to 20%. For PYTNYTFDF, the peptide exchange yield is > 75%. With TYLSIFDQL the figure was 50 to 75%; with KSSVIASLLF, 50 to 75%; with YPSIIQEF, > 75%. Take NYAIFDEGHML: the peptide exchange yield was > 75%. On to IYFRDSSFL, for which the peptide exchange yield was > 75%.

Turning to KYADYFLEV, the peptide exchange yield is > 75%. As for EFTTVLYNF, the peptide exchange yield is > 75%. On to QYQNVLTLW, for which the peptide exchange yield is > 75%.

Regarding HYTYILEVF, the peptide exchange yield is > 75%.

VYPLLSRLYW: the peptide exchange yield was > 75%. Turning to KQMEDGHTLF, the peptide exchange yield was in the range of 20 to 50%.

Molecule VQQWSVAVF had a peptide exchange yield of 50 to 75%. As for SYNGYVFYL, the figure is > 75%.
